Ki data for 6 molecules are collected here from article PMC4624963, “Enzymatic Characterization of Recombinant Food Vacuole Plasmepsin 4 from the Rodent Malaria Parasite Plasmodium berghei” (PLoS ONE, 2015).

Where no end group is shown, it is not given here.

Experiment [1] has as its target mature plasmepsin 4 of Plasmodium berghei (PbPM4), auto-matured from semi-proPbPM4 (Plasmodium berghei ANKA). Briefly: enzyme inhibition kinetics (Ki of competitive inhibition); initial cleavage velocities of a chromogenic peptide substrate at varied inhibitor concentration, spectrophotometric; proPbPM4 pre-incubated in 100 mM sodium citrate pH 5.0, 37°C, 5 min; tight-binding or non-tight-binding competitive fit.

For experiment [2], the target named is human cathepsin D (human) (UniProt P07339). Put plainly: enzyme inhibition kinetics (Ki of competitive inhibition); initial cleavage velocities of a chromogenic peptide substrate at varied inhibitor concentration; hcatD pre-incubated in 200 mM sodium formate pH 3.7, 37°C, 5 min.
Experiment [3] deals with plasmepsin 4 from Plasmodium malariae (Plasmodium malariae). Put plainly: enzyme inhibition kinetics (Ki of competitive inhibition); initial cleavage velocities of a chromogenic peptide substrate at varied inhibitor concentration; plasmepsins pre-incubated in 100 mM sodium formate pH 4.5, 37°C, 5 min to convert zymogen to mature enzyme.
For experiment [4], the target named is plasmepsin 4 from Plasmodium ovalae (P. ovalae). Described as above.
The target in experiment [5] is plasmepsin 4 from Plasmodium vivax (Plasmodium vivax). The description is as above.

B1: compound 4 (KPVEFΨRQT), peptidomimetic inhibitor designed for PfPM4 (peptide)
peptide: KPVEFRQT
modifications: not fully specified (residue 5); printed as KPVEFΨRQT; also: Ψ pseudopeptide bond between F5 and R6
Regarding B1, the inhibition constant (Ki) – broadly, a measure of affinity in units of concentration, obtained from inhibition or displacement – in experiment [1] turned out to be 502 nM.

B2: compound 2 (KPFSLΨLQF), peptidomimetic inhibitor designed for PfPM1 (peptide)
peptide: KPFSLLQF
modifications: not fully specified (residue 5); printed as KPFSLΨLQF; also: Ψ pseudopeptide bond between L5 and L6
As for B2, the inhibitory constant (Ki) in experiment [1] was 379 nM.

B3: compound 5 (KPLEFΨFRV), peptidomimetic inhibitor designed for PvPM4 (peptide)
peptide: KPLEFFRV
modifications: not fully specified (residue 5); printed as KPLEFΨFRV; also: Ψ pseudopeptide bond between F5 and F6
On to B3, for which, in experiment [1], the inhibition constant Ki was 1.4 nM.

B4: compound 6 (KPLEFΨYRV), peptidomimetic inhibitor designed for PoPM4 (peptide)
peptide: KPLEFYRV
modifications: not fully specified (residue 5); printed as KPLEFΨYRV; also: Ψ pseudopeptide bond between F5 and Y6
Turning to B4, in experiment [1], the Ki was 0.12 nM.

B5: compound 1 (KPYEFΨRQF), peptidomimetic inhibitor designed for PbPM4 (peptide)
peptide: KPYEFRQF
modifications: not fully specified (residue 5); printed as KPYEFΨRQF; also: Ψ pseudo-peptide bond between F5 and R6
In the case of B5, the Ki in experiment [2] is 41000 nM; in experiment [3], 445 nM; in experiment [4], 1900 nM; in experiment [5], 426 nM; in experiment [1], 3900 nM.

B6: compound 7 (KPFELΨAWT), peptidomimetic inhibitor designed for PmPM4 (peptide)
peptide: KPFELAWT
modifications: not fully specified (residue 5); printed as KPFELΨAWT; also: Ψ pseudopeptide bond between L5 and A6
For the molecule B6, in experiment [1], the Ki came out at 8100 nM.
